In patent US12331106B2, “Anti-angiopoietin-2 antibodies that induce Tie2 activation” (Institute for Basic Science, priority 2018, dated 2025):

How the values were obtained:
[1] = system: tumor vessels of LLC tumor; experiment: Tumor vessel normalization (CD31, PDGFRβ immunofluorescence) in LLC tumors; type: in vivo, C57BL/6 mice; conditions: compared with Fc or Fc+Cpt
Description: In order to investigate the changes in tumor vessels by 2C811 antibody, we obtained frozen sections of tumor samples and performed immunofluorescence analyses by staining with a blood vessel-specific marker, CD31, and pericyte-specific marker, PDGFRβ. In detail, the tumor samples were harvested from the mice from the experiment described in Example 8, which were fixed in 4% paraformaldehyde (PFA, Merck), dehydrated in 30% sucrose (Junsei), embedded in OCT compound (Leica), and sectioned using a cryostat (Leica). The resulting frozen sections were blocked for 1 hr using a Protein Blocking Buffer (DAKO). Then the sections were stained with hamster anti-CD31 antibody (1:200, Millipore®) and rat anti-PDGFRB antibody (1:200, eBioscience™) in PBS at 4° C. for 8 hrs. After washing 3 times with PBS, the sections were stained with ALEXA FLUOR® 488-conjugated anti-hamster IgG antibody and Alexa ALEXA FLUOR® 594-conjugated anti-rat IgG antibody (1:1000, Jackson Immunoresearch) in PBS for 1 hr at room temperature. After another 3 washes with PBS, the sections were mounted in fluorescence mounting medium (DAKO) using a coverslip (Marienfeld). The stained sections were imaged using LSM880 confocal microscope (Zeiss). […]

[2] = system: Tie2 receptor; experiment: Tie2 phosphorylation in HUVECs (immunoprecipitation/Western); type: cell-based, human; conditions: antibody 0.02-50 μg/ml with hAng2 1 μg/ml, 30 min
Description: Ang2 binds to the Tie2 receptor and acts as a weak agonist or antagonist. The anti-Ang2 antibody developed in this invention binds to Ang2 to induce Ang2-antibody complexes, further causing clustering of Tie2 receptors and consequently enhancing activation of Tie2 receptor. Experiments were conducted to analyze the effect of anti-Ang2 antibody on Tie2 phosphorylation using HUVECs.
Specifically, HUVECs (LONZA™) were cultured in EGM-2 (LONZA™) at 37° C. and 5% CO2 concentration in a 100 mm culture dish. At 80-90% confluency, the cells were changed to EBM-2 (LONZA™) medium for 2 hrs˜ 6 hrs for serum starvation. Humanized anti-Ang2 antibodies at various concentrations (0.02 μg/ml to 50 μg/ml) were mixed with hAng2 protein (1 μg/ml, R&D® Systems) for 30 min. Then, the mixtures were treated with the cultured cells and further incubated for 30 min. The cells were washed twice with cold PBS and then lysed in 1000 μl of lysis buffer (10 mM Tris-Cl pH 7.4, 150 mM NaCl, 5 mM EDTA, 10% glycerol, 1% TRITON™ X-100 (non-ionic polyoxyethylene surfactant), protease inhibitor, phosphatase inhibitor) and then lysed at 4° C. for 60 min. Cell extracts were prepared and centrifuged at 12,000 rpm for 10 min. The supernatant was quantitated by bicinchoninic (BCA) assay.
To 0.5 mg of cell lysate, 1 μg of Tie2 antibody (R&D® Systems, AF313) was added and incubated overnight at 4° C. […]

[3] = system: downstream signaling of the Tie2 receptor (Akt phosphorylation) in HUVECs; experiment: Akt phosphorylation in HUVECs by mouse anti-Ang2 antibodies plus hAng2 (immunoblot); type: cell-based, human; conditions: serum-starved HUVECs; antibody combined with hAng2 1 μg/ml; 30 min
Description: To investigate whether the mouse anti-Ang2 antibodies induce the downstream signaling of the Tie2 receptor in endothelial cells, HUVECs (LONZA™) were treated with a combination of hAng2 protein and anti-Ang2 antibody, and then the level of Akt phosphorylation, the main downstream signaling protein of Tie2 receptor, was analyzed by immunoblotting. As a negative control group, the full-length hAng2 (R&D® Systems) alone was treated into the cells.
Specifically, HUVECs (1×10^5 cells/ml) were cultured in EGM-2 medium (LONZA™) at 37° C. in a 60 mm culture dish. Cells (90% confluency) were incubated with serum-free EBM-2 medium for 4 hrs for serum starvation. The serum-starved HUVECs were treated with a mixture of anti-Ang2 antibody and hAng2 protein (1 μg/ml, R&D® Systems) and further incubated for 30 min. The cells were washed with cold PBS, treated with lysis buffer, and lysed at 4° C. for 20 min. Then, the cell lysates were prepared by centrifugation at 13000 rpm for 15 min. 5× SDS sample buffer was added to the cell lysate and the cell lysate was boiled at 95° C. for 5 min. Then, the cell lysate was subjected to SDS PAGE and proteins were transferred to a nitrocellulose membrane (GE).
To investigate Akt phosphorylation, the blot was blocked with 5% skim milk-containing TBS-T for 1 hr at room temperature (RT), and incubated with anti-phospho-Akt antibody (S473) at 4° C. for about 8 hrs. The amount of phospho-Akt was visualized by an enhanced chemiluminescence (ECL). Then, the membrane was incubated in a stripping buffer (Thermo) for 15 min, and then reprobed with an anti-Akt antibody to determine the amount of total Akt.

Row | Molecule | PDGFRβ+ pericyte coverage increase [1] [fold] | tumor blood vessel (BV) density reduction [1] [%] | phosphorylation of Tie2 [2] | Akt phosphorylation at S473 [3]
1 | 2C8H11: humanized anti-Ang2 human IgG1 antibody from mouse 2C8; VH SEQ ID NO: 55, VL SEQ ID NO: 56 (antibody, V domains shown, human IgG1 constant regions; VH; VL) VH: QVQLVQSGAEVKKPGASVKVSCKASGYTFTSYWMHWVRQAPGQGLEWMGMIDPSDSETRLNQKFKDRVTMTRDTSTSTVYMELSSLRSEDTAVYYCARRFYYGSDWYFDVWGQGTLVTVSS VL: DIQLTQSPSFLSASVGDRVTITCKASQDVGTAVAWYQQKPGKAPKLLIYWASTRHTGVPSRFSGSGSGTEFTLTISSLQPEDFATYYCQQYSSYPLTFGQGTKVEIK | 2.4 | 56 | strongly induced in a dose-dependent manner | –
2 | 2C8: mouse monoclonal anti-Ang2 antibody; VH SEQ ID NO: 19, VL SEQ ID NO: 21; hybridoma KCLRF-BP-00417 (antibody, V domains shown, Heavy Chain Variable Region; Light Chain Variable Region, mouse monoclonal anti-Ang2 antibody; hybridoma KCLRF-BP-00417) VH: QVQLQQSGPQLVRPGASVKISCKASGYSFTSYWMHWVKQRPGQGLEWIGMIDPSDSETRLNQKFKDKASLTVDKSSSTAYMQLSSPTSGDSAVYYCARRFYYGSDWYFDVWGAGSTVTVSS VL: DIVMTQSHKFMSTSVGDRVSITCKASQDVGTAVAWYQQKPGQSPKLLIYWASTRHTGVPDRFTGSGSGTDFTLTISNVQSEDLADYFCQQYSSYPLTFGSGTKLEIK | – | – | – | strongly induced
3 | 4B9: mouse monoclonal anti-Ang2 antibody; VH SEQ ID NO: 9, VL SEQ ID NO: 11; hybridoma KCLRF-BP-00418 (antibody, V domains shown, Heavy Chain Variable Region; Light Chain Variable Region, mouse monoclonal anti-Ang2 antibody; hybridoma KCLRF-BP-00418) VH: EVQLVESGGGLVKPGGSLKLSCAASGFTFSDYYMYWVRQTPEKRLEWVATISVGGSFTYYPDSVKGRFTISRDNAKNNLYLQMSSLKSEDTAMYYCARDWGLRPWFVYWGQGTLVTVSA VL: DIVMTQSHKFMSTSVGDRVSITCKASQDVSTAVAWYQQKPGQSPKLLIYWASTRHTGVPDRFTGSGSGTDYTLTISSVQAEDLALYYCQQHYSTPPTFGSGTKLEIK | – | – | – | strongly induced
